The results in this text go back to patent US20100104509A1 (Bristol-Myers Squibb, published 2010).

For assay [1], the target named is T1, human CD19 expressed on the cell surface (human, UniProt P15391 20-556).
T1 construct: CHO cells were transfected with the full-length cDNA encoding the transmembrane form of CD19; Raji, Daudi and ARH-77 cells carry endogenous CD19; also called CD19 on Raji B tumor cells; CD19 on Daudi B tumor cells
T1 sequence: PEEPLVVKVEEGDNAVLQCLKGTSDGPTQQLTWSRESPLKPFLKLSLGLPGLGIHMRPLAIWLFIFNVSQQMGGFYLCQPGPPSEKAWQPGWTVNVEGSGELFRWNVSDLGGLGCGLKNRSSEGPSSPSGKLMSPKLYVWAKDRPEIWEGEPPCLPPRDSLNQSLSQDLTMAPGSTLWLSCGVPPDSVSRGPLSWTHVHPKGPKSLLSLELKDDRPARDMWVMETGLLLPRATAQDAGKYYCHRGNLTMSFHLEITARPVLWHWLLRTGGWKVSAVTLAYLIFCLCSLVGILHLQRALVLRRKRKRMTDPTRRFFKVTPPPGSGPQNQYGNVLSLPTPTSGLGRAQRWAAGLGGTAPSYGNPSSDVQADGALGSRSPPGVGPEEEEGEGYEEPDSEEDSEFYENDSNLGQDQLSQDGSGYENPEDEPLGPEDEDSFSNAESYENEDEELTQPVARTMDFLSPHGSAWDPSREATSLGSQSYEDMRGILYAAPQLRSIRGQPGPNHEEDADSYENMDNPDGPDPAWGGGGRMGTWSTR
Put plainly: Scatchard analysis; 125I-labelled antibody on Raji cells, 4 °C. The method, then: Raji cells were obtained from ATCC (Accession #CCL-86) and grown in RPMI containing 10% fetal bovine serum (FBS). The cells were washed twice with RPMI containing 10% FBS at 4° C. and the cells were adjusted to 4×10⁷ cells/ml in RPMI media containing 10% fetal bovine serum (binding buffer containing 24 mM Tris pH 7.2, 137 mM NaCl, 2.7 mN KCl, 2 mM glucose, 1 mM CaCl₂, 1 mM MgCl₂, 0.1% BSA). Millipore plates (MAFB NOB) were coated with 1% nonfat dry milk in water and stored a 4° C. overnight. The plates were washed with binding buffer and 25 μl of unlabeled antibody (1000-fold excess) in binding buffer was added to control wells in a Millipore 96 well glass fiber filter plate (non-specific binding NSB). Twenty-five microliters of buffer alone was added to the maximum binding control well (total binding). […] The plates were incubated for 2 hours at 200 RPM on a shaker at 4° C. At the completion of the incubation the Millipore plates were washed three times with 0.2 ml of cold wash buffer (24 mM Tris pH 7.2, 500 mM NaCl, 2.7 mN KCl, 2 mM glucose, 1 mM CaCl₂, 1 mM MgCl₂, 0.1% BSA). The filters were removed and counted in a gamma counter. Evaluation of equilibrium binding was performed using single site binding parameters with the Prism software (San Diego, Calif.).

Assay [2] addresses T1, human CD19 expressed on the cell surface. Put plainly: Raji direct binding FACS, Geo Mean; unit from the concentration axis. The protocol: (§1) Binding of the CD19 HuMAbs by flow cytometry to the B cell tumor lines Raji and Daudi, or to a CHO-CD19 transfected cell line was assessed. CHO cells were transfected with an expression plasmid containing the full length cDNA encoding the transmembrane form of CD19. […] A known murine anti-CD19 antibody was used as a positive control. The cells were washed and detected by either a phycoerythrin-labeled anti-human or anti-mouse secondary antibody and analyzed by flow cytometry. The results for binding to the CHO-CD19 cell line, Daudi B cell line, Raji B cell line and an expanded binding set against the Raji B cell line are shown in FIGS. 25A, 25B, 25C and 25D, respectively. […] All results are shown as measured by the geometric mean fluorescent intensity (GMFI) of staining.

Assay [3] shares this target. Put plainly: FACS competition on Raji cells: unlabeled antibody titrated against biotinylated 21D4 at 0.3 ug/mL, Geo Mean (PE); unit from the concentration axis.
For assay [4] the target is unchanged. Put plainly: FACS competition on Raji cells: unlabeled antibody titrated against biotinylated 21D4a at 0.3 ug/mL, Geo Mean (PE); unit from the concentration axis.
The target is the same in assay [5]. Put plainly: Flow cytometry on CHO cells transfected with human CD19, GMFI. The method, then:
as §1

B1: human monoclonal antibody 47G4 (antibody, V domains shown)
VH: QVQLVQSGAEVKKPGSSVKVSCKDSGGTFSSYAISWVRQAPGQGLEWMGGIIPIFGTTNYAQQFQGRVTITADESTSTAYMELSSLRSEDTAVYYCAREAVAADWLDPWGQGTLVTVSS
VL: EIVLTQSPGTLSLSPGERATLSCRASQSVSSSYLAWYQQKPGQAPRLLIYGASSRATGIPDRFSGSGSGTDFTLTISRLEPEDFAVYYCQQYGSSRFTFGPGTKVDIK
notes: Human kappa antibody; It was 125I-labelled in the Scatchard assay; also called HuMAb 47G4; CD19 HuMAb 47G4
In turn, B1 displayed a dissociation constant (Kd) in assay [1] of around 12 nM.

B2: 5G7-N19K (antibody, V domains shown)
VH: EVQLVQSGAEVKKPGESLKISCKGSGYSFTSYWIGWVRQMPGKGLEWMGIIYPGDSDTRYSPSFQGQVTISADKSINTAYLQWSSLKASDTAMYYCARGVSMIWGVIMDVWGQGTTVTVSS
VL: AIQLTQSPSSLSASVGDRVTITCRASQGISSALAWYQQKPGKAPKLLIYDASSLESGVPSRFSGSGSGTDFTLTISSLQPEDFATYYCQQFNSYPWTFGQGTKVEIK
notes: also called 5G7 with N-I-S changed to K-I-S
Regarding B2, the EC50 in assay [2] is 0.224 µg/mL; in assay [3] it was 2.1 nM; in assay [4], 2.38 nM.

B3: human monoclonal antibody 13F1 (antibody, V domains shown)
VH: EVQLVQSGAEVKKPGESLQISCKGSGYTFTNYWIAWVRQMPGKGLEWMGIIYPGDSDTRYSPSFQGQVTISADKSISTAYLQWSGLKASDTAMYYCARQGYSSGWRSYYGMGVWGQGTTVTVSS
VL: AIQLTQSPSSLSASVGDRVTITCRASQGISSALAWYQQKPGKAPKLLIYDASSLESGVPSRFSGSGSGTDFTLTISSLQPEDFATYYCQQFNSYPHTFGQGTKLEIK
Regarding B3, the EC50 in assay [2] was found to be 0.266 µg/mL; in assay [3], 1.99 nM; in assay [4], 1.97 nM.

B4: 5G7-N19Q (antibody, V domains shown)
VH: EVQLVQSGAEVKKPGESLQISCKGSGYSFTSYWIGWVRQMPGKGLEWMGIIYPGDSDTRYSPSFQGQVTISADKSINTAYLQWSSLKASDTAMYYCARGVSMIWGVIMDVWGQGTTVTVSS
VL: AIQLTQSPSSLSASVGDRVTITCRASQGISSALAWYQQKPGKAPKLLIYDASSLESGVPSRFSGSGSGTDFTLTISSLQPEDFATYYCQQFNSYPWTFGQGTKVEIK
notes: Glycosylation-site variant of 5G7; also called 5G7 with N-I-S changed to Q-I-S
As for B4, the 50% effective concentration (EC50) came to 0.217 µg/mL in assay [2], 2.16 nM in assay [3] and 2.63 nM in assay [4].

B5: human monoclonal antibody 21D4a (antibody, V domains shown)
VH: EVQLVQSGAEVKKPGESLKISCKGSGYSFSSSWIGWVRQMPGKGLEWMGIIYPDDSDTRYSPSFQGQVTISADKSIRTAYLQWSSLKASDTAMYYCARHVTMIWGVIIDFWGQGTLVTVSS
VL: AIQLTQSPSSLSASVGDRVTITCRASQGISSALAWYQQKPGKAPKLLIYDASSLESGVPSRFSGSGSGTDFTLTISSLQPEDFATYYCQQFNSYPFTFGPGTKVDIK
notes: Same heavy chain as 21D4, paired with the second light chain made by the 21D4 hybridoma
Turning to B5, the EC50 in assay [2] amounted to 0.129 µg/mL; in assay [3] it was 0.694 nM; in assay [4], 0.767 nM.

B6: human monoclonal antibody 21D4 (antibody, V domains shown)
VH: EVQLVQSGAEVKKPGESLKISCKGSGYSFSSSWIGWVRQMPGKGLEWMGIIYPDDSDTRYSPSFQGQVTISADKSIRTAYLQWSSLKASDTAMYYCARHVTMIWGVIIDFWGQGTLVTVSS
VL: AIQLTQSPSSLSASVGDRVTITCRASQGISSALAWYQQKPGKAPKLLIYDASSLESGVPSRFSGSGSGTDFTLTISSLQPEDFATYYCQQFNSYPYTFGQGTKLEIK
notes: Fully human antibody from a KM mouse hybridoma, kappa light chain; also called HuMAb 21D4; parental anti-CD19 antibody 21D4
As for B6, the “EC50 (read off the curve)” value in assay [5] was around 0.1 µg/mL. Further, the half-maximal effective concentration (EC50) in assay [2] is 0.141 µg/mL; in assay [3], 0.655 nM; in assay [4], 0.832 nM. The dissociation constant (Kd) in assay [1] is around 2.14 nM.

B7: human monoclonal antibody 5G7 (antibody, V domains shown)
VH: EVQLVQSGAEVKKPGESLNISCKGSGYSFTSYWIGWVRQMPGKGLEWMGIIYPGDSDTRYSPSFQGQVTISADKSINTAYLQWSSLKASDTAMYYCARGVSMIWGVIMDVWGQGTTVTVSS
VL: AIQLTQSPSSLSASVGDRVTITCRASQGISSALAWYQQKPGKAPKLLIYDASSLESGVPSRFSGSGSGTDFTLTISSLQPEDFATYYCQQFNSYPWTFGQGTKVEIK
modifications: N-linked carbohydrate in the variable (Fab) region at the N-I-S motif starting at position 19
In the case of B7, the values for the EC50 in assay [2], in assay [3] and in assay [4] were 0.188 µg/mL, 2.45 nM and 2.85 nM, respectively.

B8: human monoclonal antibody 3C10 (antibody, V domains shown)
VH: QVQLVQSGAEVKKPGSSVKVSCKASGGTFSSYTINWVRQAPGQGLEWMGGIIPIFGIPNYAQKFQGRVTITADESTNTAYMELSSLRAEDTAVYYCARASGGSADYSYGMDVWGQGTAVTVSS
VL: DIQMTQSPSSLSASVGDRVTITCRASQGISSWLAWYQQKPEKAPKSLIYAASSLQSGVPSRFSGSGSGTDFTLTISSLQPEDFATYYCQQYKRYPYTFGQGTKLEIK
Take B8: the values for the 50% effective concentration (EC50) in assay [2], in assay [3] and in assay [4] were 0.24 µg/mL, 0.628 nM and 0.686 nM, respectively.
